Molecular target: naturally occurring Tek as expressed on human endothelial cells (human) (UniProt Q02763)
Test: flow cytometry on HMVEC-d, mAb 5 µg/ml, competitor human Ang2 10 µg/ml; negative control antibody

UniProt Q02763, sequence (Q02763 23-1124): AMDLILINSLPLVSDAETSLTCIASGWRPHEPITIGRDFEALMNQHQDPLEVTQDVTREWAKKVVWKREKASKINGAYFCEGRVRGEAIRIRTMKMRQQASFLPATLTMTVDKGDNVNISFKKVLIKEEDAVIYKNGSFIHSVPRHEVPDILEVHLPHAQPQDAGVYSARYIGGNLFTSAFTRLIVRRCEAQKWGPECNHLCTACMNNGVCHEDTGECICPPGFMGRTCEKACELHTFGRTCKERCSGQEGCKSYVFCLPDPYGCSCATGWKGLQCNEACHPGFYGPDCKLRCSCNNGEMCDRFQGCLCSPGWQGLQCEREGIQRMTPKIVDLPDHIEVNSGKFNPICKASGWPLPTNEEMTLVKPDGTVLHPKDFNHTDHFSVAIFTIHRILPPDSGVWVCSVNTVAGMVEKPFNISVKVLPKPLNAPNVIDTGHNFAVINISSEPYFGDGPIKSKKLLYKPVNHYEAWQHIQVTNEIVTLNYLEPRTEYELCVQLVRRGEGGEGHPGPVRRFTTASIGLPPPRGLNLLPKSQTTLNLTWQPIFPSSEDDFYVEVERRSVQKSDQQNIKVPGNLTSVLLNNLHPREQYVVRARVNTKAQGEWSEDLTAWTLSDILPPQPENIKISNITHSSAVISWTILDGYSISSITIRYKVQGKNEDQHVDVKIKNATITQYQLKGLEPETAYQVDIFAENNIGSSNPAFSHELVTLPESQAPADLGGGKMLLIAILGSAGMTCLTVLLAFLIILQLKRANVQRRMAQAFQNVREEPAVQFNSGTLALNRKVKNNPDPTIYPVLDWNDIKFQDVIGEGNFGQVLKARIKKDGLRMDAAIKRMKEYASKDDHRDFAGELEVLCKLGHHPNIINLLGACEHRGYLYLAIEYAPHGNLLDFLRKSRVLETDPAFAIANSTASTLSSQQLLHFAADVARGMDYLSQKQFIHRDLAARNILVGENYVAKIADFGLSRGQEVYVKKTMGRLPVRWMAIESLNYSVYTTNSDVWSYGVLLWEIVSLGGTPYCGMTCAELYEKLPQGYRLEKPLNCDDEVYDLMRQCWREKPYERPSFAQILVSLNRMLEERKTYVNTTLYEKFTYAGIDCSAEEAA

- Percent Inhibition of Antibody Binding by Ang2: 0%
Substance: IgG1 negative control mAb (MOPC21) (antibody)
